Results reported in patent US12269880B2, “LAG3 binding peptides” (Leidos, Inc., priority 2019, dated 2025).
Several values for one entry are separate records, joined by “and”; a condition that tells them apart may be missing. Identical values can stand only once.

How the values were obtained:
[1] = system: interaction with LAG3 and its ligand MHC-II; assay: Cell-based NFAT-luc2P luciferase reporter assay, LAG3 Jurkat / MHC-II Raji co-culture; parameters: species or system human; conditions: RLUs at 100 µM compared to RLUs at 0.64 µM
Description: A cell-based reporter assay was used to assess whether binding of the seven peptides identified above was sufficient to block the interaction with LAG3 and its ligand MHC-II. The components of the assay include (1) a Jurkat T cell line that stably expresses human LAG3 and a stable NFAT-luc2P luciferase reporter, (2) a Raji cell line that expresses human MHC-II, and (3) a positive control anti-LAG3 antibody that blocks the interaction of LAG3 and MHC-II. In brief, Jurkat cells expressing LAG3 are stimulated with a T cell receptor (TCR) activator molecule, resulting in expression of luciferase. When the Jurkat cells are co-cultured with an a Raji cell line expressing the MHC-II molecule, the interaction of LAG3 on the surface of a Jurkat cell with MHC-II on the surface of a Raji cell inhibits T cell activation, leading to a reduction in luciferase expression. The addition of a neutralizing antibody against LAG3 blocks the inhibition signal and allows luciferase expression to proceed. BIO-GLO™ (Promega) was used to measure luciferase expression. The seven LAG3 peptides were tested at concentrations of 0, 0.64, 1.6, 4, 10, 25, & 100 µM.
Results of the assay testing the seven LAG3 peptides identified above and a negative control peptide ([…]; SEQ ID NO:9) are shown in FIG. 1B.

[2] = system: human peripheral blood mononuclear cell (PBMC); assay: Human PBMC-based recall assay (EBV and CMV viral-specific peptides); type: cell-based; conditions: seven days post-stimulation
Protocol: PBMCs were obtained from a human donor who had previously been identified as a positive responder to Epstein-Barr virus (EBV) and Cytomegalovirus (CMV) viral-specific peptides. 5×10^5 PBMCs in 200 μL of media were stimulated with EBV and CMV viral-specific peptides in the presence or absence of LAG3-11. Seven days post-stimulation, the percentage of virus-specific CD8+ T cells were identified via flow cytometry using MHC-I tetramers. Supernatants were also collected and the amount of […] determined via ELISA.

human LAG3/FGL1 = biological target: T1, human LAG3/FGL1 (Homo sapiens, UniProt P18627); assay: Human LAG3/FGL1 TR-FRET binding assay (BPS Bioscience)
T1 construct: purchased BPS Bioscience
T1 sequence (P18627 23-450 limits assumed): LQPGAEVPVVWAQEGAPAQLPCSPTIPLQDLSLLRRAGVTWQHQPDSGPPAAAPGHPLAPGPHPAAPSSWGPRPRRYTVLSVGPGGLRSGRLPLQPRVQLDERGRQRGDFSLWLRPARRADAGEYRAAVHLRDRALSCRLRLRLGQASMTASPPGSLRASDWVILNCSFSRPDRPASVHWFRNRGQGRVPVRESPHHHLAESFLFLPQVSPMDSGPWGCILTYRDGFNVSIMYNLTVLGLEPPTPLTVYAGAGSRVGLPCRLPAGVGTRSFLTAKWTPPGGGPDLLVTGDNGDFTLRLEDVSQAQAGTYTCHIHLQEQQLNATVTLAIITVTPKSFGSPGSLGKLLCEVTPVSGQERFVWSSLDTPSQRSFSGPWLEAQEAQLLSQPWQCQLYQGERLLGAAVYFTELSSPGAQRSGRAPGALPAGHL
Protocol: The peptides were tested using a human LAG3/FGL1 TR-FRET binding assay (BPS Bioscience) carried out according to the manufacturer's instructions.
Peptide stocks of LAG3-11, LAG3-42, LAG3-48, LAG3-51, LAG3-54, LAG3-56, LAG3-60 and OVA were prepared at 1 mM followed by a 1:5 dilution in plate reactions. LAG3-11 and OVA were tested at 200, 50, 13, 3, 0.8, 0.2, 0.05, and 0.01 μM. The other peptides were tested at 200, 50, 13, and 3 μM. A neutralizing anti-human LAG3 antibody (BPS Bioscience Cat. #71219) was used as a positive control.
Reaction mixes were incubated 1 hr at RT before development. After development, plate was read in a Tecan M1000 TR-FRET instrument. Percent activity was calculated as follows: % Activity=100×[(sample−minimum)/(maximum−minimum)]

LAG3/MHC-II interaction = biological target: T2, LAG3/MHC-II interaction (Homo sapiens, UniProt P18627); assay: HTRF LAG3/MHC-II binding assay (Cisbio)
T2 construct: purchased Cisbio US Inc
T2 sequence (P18627 23-450 limits assumed): T1 sequence (P18627 23-450 limits assumed)
Description: FIG. 2 is a graph showing the results of a homogeneous time-resolved fluorescence (HTRF) assay for peptide LAG3-11. Reference Ab-LAG3 is an anti-LAG3 antibody. OVA, the ovalbumin (OVA) peptide (ISQAVHAAHAEINEAGR, SEQ ID NO:8). “HTRF ratio” is the emission at 665 nm (acceptor)/emission at 620 nm (donor) multiplied by a factor or 10^4.
A homogeneous time-resolved fluorescence (HTRF) LAG3/MHC-II binding assay (Cisbio US Inc.) was used to measure the interaction between MHC-II and LAG3 in the presence of peptides. In this assay, the interaction between Tag1-LAG3 and Tag2-MHC-II is detected by using anti-Tag1-Terbium (HTRF donor) and anti-Tag2-XL665 (HTRF acceptor). When the donor and acceptor antibodies are brought into close proximity due to LAG3 and MHC-II binding, excitation of the donor antibody triggers fluorescent resonance energy transfer (FRET) towards the acceptor antibody, which in turn emits specifically at 665 nm. This specific signal is directly proportional to the extent of LAG3/MHC-II interaction. Thus, an agent that blocks the interaction between LAG3 and MHC-II will cause a reduction in HTRF ratio.
An anti-human LAG3 antibody (Novoprotein #GMP-A092, Lot 0331158, 500 nM) was tested in the assay at an eleven-point, serially diluted semi-log dose response curve starting at 100 nM and served as a positive control. The ovalbumin peptide was used as a negative control. Peptides were reconstituted at a concentration of 20 mM in […] and tested at an eleven-point dose response curve starting at 100 µM followed by 4-fold dilutions. […]

[3] = biological target: T3, soluble recombinant human LAG3 (Homo sapiens, UniProt P18627); assay: Clonal phage ELISA after phage display bio-panning; type: binding
T3 construct: soluble recombinant human LAG3
T3 sequence (P18627 23-450 limits assumed): T1 sequence (P18627 23-450 limits assumed)
Description: The TriCo-20™, TriCo-16™, Ph.D.-12™, and Ph.D. C7™ Phage Display Peptide Libraries (Creative Biolabs, 45-1 Ramsey Road, Shirley, NY 11967) were screened by performing several rounds of bio-panning to identify binders of soluble recombinant human LAG3.

HTRF ratio (LAG3/MHC-II interaction; LOG [Compound] M tested for peptide −4, single replicates): 3213 and 3460 and 3458
HTRF ratio (LAG3/MHC-II interaction; LOG [Compound] M tested for peptide −4.60206, single replicates): 4749 and 5287 and 5014
HTRF ratio (LAG3/MHC-II interaction; LOG [Compound] M tested for peptide −5.20412, single replicates): 6812 and 6892 and 6696
HTRF ratio (LAG3/MHC-II interaction; LOG [Compound] M tested for peptide −5.80618, single replicates): 7774 and 8164 and 7993
HTRF ratio (LAG3/MHC-II interaction; LOG [Compound] M tested for peptide −6.40824): 8538 and 8718 and 8858
HTRF ratio (LAG3/MHC-II interaction; LOG [Compound] M tested for peptide −7.0103, single replicates): 8794 and 8729 and 8889
HTRF ratio (LAG3/MHC-II interaction; LOG [Compound] M tested for peptide −7.61236, single replicates): 9090 and 9036 and 9329
HTRF ratio (LAG3/MHC-II interaction; LOG [Compound] M tested for peptide −8.21442, single replicates): 9012 and 9293 and 9067
HTRF ratio (LAG3/MHC-II interaction; LOG [Compound] M tested for peptide −8.81648, single replicates): 8877 and 8955 and 8992
HTRF ratio (LAG3/MHC-II interaction; LOG [Compound] M tested for peptide −9.41854, single replicates): 8591 and 6950 and 8287
HTRF ratio (LAG3/MHC-II interaction; LOG [Compound] M tested for peptide −10.0206): 8212 and 8748 and 8700
HTRF ratio (LAG3/MHC-II interaction; LOG [Compound] M tested for peptide −10.6227): 8886 and 8842 and 9097
Clonal Phase ELISA coated signal ([3]; coated): 0.271
Clonal Phase ELISA uncoated signal ([3]; uncoated (background)): 0.093
Sequence: SAPWEPLHWPEDWWQGTGEW (LAG3-11 peptide)
fold inhibition (fold increase in luciferase activity) [1]: approximately 2.8 fold
increase of IFN-7 secretion by human PBMCs ([2]; relative to the viral-specific peptides alone, ELISA): 3 fold
increase in percentage of tetramer+ CD8 T cells ([2]; flow cytometry, MHC-I tetramers): ~2 fold
inhibition of the interaction between human LAG3 and FGL1 (human LAG3/FGL1): inhibit the interaction between human LAG3 and FGL1
disruption of LAG3 and MHC-II interaction (LAG3/MHC-II interaction; four independent experiments): disrupts the interaction of LAG3 and MHC-II
